{"source": "paper PMC2709796", "binders": {"B1": {"name": "hexa-His-tagged fragment of sorLA including the YWTD-repeated β-propeller, the single EGF-domain and the 11 CR-domains (residues 728-1526) (domain or fragment)", "chain": "YRKISGDTCSGGDVEARLEGELVPCPLAEENEFILYAVRKSIYRYDLASGATEQLPLTGLRAAVALDFDYEHNCLYWSDLALDVIQRLCLNGSTGQEVIINSGLETVEALAFEPLSQLLYWVDAGFKKIEVANPDGDFRLTIVNSSVLDRPRALVLVPQEGVMFWTDWGDLKPGIYRSNMDGSAAYHLVSEDVKWPNGISVDDQWIYWTDAYLECIERITFSGQQRSVILDNLPHPYAIAVFKNEIYWDDWSQLSIFRASKYSGSQMEILANQLTGLMDMKIFYKGKNTGSNACVPRPCSLLCLPKANNSRSCRCPEDVSSSVLPSGDLMCDCPQGYQLKNNTCVKQENTCLRNQYRCSNGNCINSIWWCDFDNDCGDMSDERNCPTTICDLDTQFRCQESGTCIPLSYKCDLEDDCGDNSDESHCEMHQCRSDEYNCSSGMCIRSSWVCDGDNDCRDWSDEANCTAIYHTCEASNFQCRNGHCIPQRWACDGDTDCQDGSDEDPVNCEKKCNGFRCPNGTCIPSSKHCDGLRDCSDGSDEQHCEPLCTHFMDFVCKNRQQCLFHSMVCDGIIQCRDGSDEDAAFAGCSQDPEFHKVCDEFGFQCQNGVCISLIWKCDGMDDCGDYSDEANCENPTEAPNCSRYFQFRCENGHCIPNRWKCDRENDCGDWSDEKDCGDSHILPFSTPGPSTCLPNYYRCSSGTCVMDTWVCDGYRDCADGSDEEACPLLANVTAASTPTQLGRCDRFEFECHQPKTCIPNWKRCDGHQDCQDGRDEANCPTHSTLTCMSREFQCEDGEA"}}, "target": "human LRP purified from placenta (human)", "assay": "SPR"}
{"binder": "B1", "values": [{"measurement": "Kd", "value": 36.5, "unit": "nM"}, {"measurement": "koff", "value": 0.00015, "unit": "s⁻¹"}, {"measurement": "kon", "value": 4110, "unit": "M⁻¹ s⁻¹"}]}
